Assay [1] concerns the target T1, Human NRP2a v1 (931aa) with C-terminal split NanoLuc tag, expressed in Expi293F cells (human, UniProt O60462 23-931).
T1 construct: Made by mutagenesis from the isoform 2 / isoform 5 vectors; not shown: vector-encoded spacer and split NanoLuc fragment (Promega pBiT vector)
The assay is described as follows: NanoBiT split-luciferase complementation of tagged NRP2 and CCR7 in Expi293F cells; 100 nM CCL21 or CCL19 added; normalized to wells without ligand.

Assay [2] concerns the target T2, Human NRP2a v2 (926aa) in pBiT2.1-C with C-terminal split NanoLuc tag, expressed in Expi293 cells (human, UniProt O60462 23-931).
T2 construct: cDNA Origene RCC220706, isoform 2; also called pBiT2.1-C-NRP2v2 (isoform 2); NRP2 v2; not shown: vector-encoded spacer and small split NanoLuc fragment (pBiT2.1-C)
The description is as above.

Assay [3] concerns the target T3, NRP2b peptide (biotinylated) (human, biotin-conjugated, site not stated).
T3 construct: also called NRP2b isoform specific peptide
T3 peptide: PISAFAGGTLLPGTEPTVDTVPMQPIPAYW
The assay is described as follows: BLI, peptide on sensor. Background: BLI is a label-free optical method that tracks binding on a fibre tip over time.

In the next assay the target is T4, NRP2v3.
T4 construct: not the NanoLuc-tagged construct m33; also called human NRP2 v3 expressed on Expi293F cells; NRP2a v3
T4 chain: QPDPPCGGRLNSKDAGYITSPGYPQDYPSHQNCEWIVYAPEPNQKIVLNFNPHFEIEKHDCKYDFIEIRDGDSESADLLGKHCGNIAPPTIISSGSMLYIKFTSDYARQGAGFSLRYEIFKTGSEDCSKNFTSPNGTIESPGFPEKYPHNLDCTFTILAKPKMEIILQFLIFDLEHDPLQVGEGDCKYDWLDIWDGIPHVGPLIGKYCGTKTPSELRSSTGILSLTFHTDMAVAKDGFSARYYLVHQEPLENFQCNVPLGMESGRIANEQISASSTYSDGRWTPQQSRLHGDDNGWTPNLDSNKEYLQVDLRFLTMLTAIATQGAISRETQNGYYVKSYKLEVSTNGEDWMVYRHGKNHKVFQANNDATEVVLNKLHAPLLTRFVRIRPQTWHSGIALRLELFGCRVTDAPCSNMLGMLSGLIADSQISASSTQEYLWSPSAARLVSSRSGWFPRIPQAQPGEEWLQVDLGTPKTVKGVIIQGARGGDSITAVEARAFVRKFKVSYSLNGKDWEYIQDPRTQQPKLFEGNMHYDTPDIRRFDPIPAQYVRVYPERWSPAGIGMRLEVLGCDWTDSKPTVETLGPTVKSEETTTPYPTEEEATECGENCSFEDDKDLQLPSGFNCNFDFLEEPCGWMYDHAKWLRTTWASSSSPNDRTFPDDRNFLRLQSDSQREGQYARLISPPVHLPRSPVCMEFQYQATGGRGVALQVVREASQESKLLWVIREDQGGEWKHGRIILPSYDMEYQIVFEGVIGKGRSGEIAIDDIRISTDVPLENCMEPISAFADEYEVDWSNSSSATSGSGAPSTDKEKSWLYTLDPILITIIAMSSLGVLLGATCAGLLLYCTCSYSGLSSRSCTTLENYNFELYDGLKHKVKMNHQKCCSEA
Put plainly: flow cytometry, Expi293F cells transfected with the target, fluorescent anti-mouse secondary; MFI signal relative to mock-transfected cells.

The target in assay [4] is T5, human NRP2a v2 expressed on Expi293F cells (human, UniProt O60462 23-931).
T5 construct: cDNA Origene RCC220706; also called NRP2 v2
The assay is described as above.
Procedure: (§1) Signal to noise was calculated as the staining intensity of transfected cells compared to an un-transfected ‘mock’ population.

Assay [5] deals with T6, human NRP2b expressed on Expi293F cells (human).
T6 construct: also called full length NRP2b
T6 chain: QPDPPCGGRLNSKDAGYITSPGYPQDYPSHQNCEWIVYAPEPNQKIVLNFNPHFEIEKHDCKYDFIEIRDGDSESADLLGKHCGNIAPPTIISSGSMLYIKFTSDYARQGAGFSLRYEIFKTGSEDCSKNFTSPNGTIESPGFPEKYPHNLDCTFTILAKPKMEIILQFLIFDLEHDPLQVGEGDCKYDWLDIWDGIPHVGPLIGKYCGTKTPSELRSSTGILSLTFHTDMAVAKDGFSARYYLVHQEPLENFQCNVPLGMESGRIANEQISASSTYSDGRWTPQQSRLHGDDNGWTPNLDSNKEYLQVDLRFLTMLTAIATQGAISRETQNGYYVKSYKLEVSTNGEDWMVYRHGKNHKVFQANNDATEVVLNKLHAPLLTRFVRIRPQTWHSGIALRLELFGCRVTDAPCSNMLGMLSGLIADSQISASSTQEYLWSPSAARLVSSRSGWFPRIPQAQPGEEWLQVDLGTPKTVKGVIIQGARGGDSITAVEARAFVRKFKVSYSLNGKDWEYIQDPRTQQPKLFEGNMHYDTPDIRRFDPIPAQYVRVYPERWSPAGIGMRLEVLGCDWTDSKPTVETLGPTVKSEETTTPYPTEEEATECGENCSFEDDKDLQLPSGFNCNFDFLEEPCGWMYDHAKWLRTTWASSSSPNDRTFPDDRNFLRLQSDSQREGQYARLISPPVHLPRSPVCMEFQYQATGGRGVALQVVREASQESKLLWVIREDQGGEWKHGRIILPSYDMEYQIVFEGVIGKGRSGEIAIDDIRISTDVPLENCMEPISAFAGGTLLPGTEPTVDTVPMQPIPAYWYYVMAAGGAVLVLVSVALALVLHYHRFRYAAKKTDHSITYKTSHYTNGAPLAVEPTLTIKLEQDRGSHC
The description is as above.
Procedure: as §1

For assay [6], the target named is T7, NRP2A peptide (biotinylated) (human, biotin-conjugated, site not stated).
T7 construct: also called NPR2A; NRP2a specific peptide
The assay is described as follows: BLI, isoform peptide on sensor, 50 nM antibody.

The target of assay [7] is T8, NRP2a_scan 6 peptide (biotinylated) (human, also: biotin-conjugated, site not given here).
T8 peptide: IDDEYEVDWSNS
Put plainly: BLI, peptide on sensor.

In assay [8] the target is T9, NRP2a_scan 3 peptide (biotinylated) (human, also: biotin-conjugated, site not given here).
T9 peptide: HEREGYEDEIDD
The assay is described as follows: BLI, peptide on sensor.

Assay [9] deals with T10, NRP2a_scan 1 peptide (biotinylated) (human, also: biotin-conjugated, site not given here).
T10 peptide: VDIPEIHEREGY
The assay is described as follows: BLI, peptide on sensor.

Assay [10] has as its target T11, NRP2a_scan 2 peptide (biotinylated) (human, also: biotin-conjugated, site not given here).
T11 peptide: PEIHEREGYEDE
The assay is described as follows: BLI, peptide on sensor.

Assay [11] deals with T12, NRP2a_scan 4 peptide (biotinylated) (human, also: biotin-conjugated, site not given here).
T12 peptide: EGYEDEIDDEYE
The assay is described as follows: BLI, peptide on sensor.

Assay [12] has as its target T13, NRP2a_scan 7 peptide (biotinylated) (human, also: biotin-conjugated, site not given here).
T13 peptide: EYEVDWSNSSSA
The assay is described as follows: BLI, peptide on sensor.

Assay [13] deals with T14, mNRP2b peptide (biotinylated) (mouse, biotin-conjugated, site not stated). The assay is described as follows: BLI, peptide on sensor.
T14 sequence (peptide, as listed by the source): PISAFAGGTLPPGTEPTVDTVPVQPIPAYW
The target in assay [14] is T15, Mid-NRP2A peptide (biotinylated) (human, biotin-conjugated, site not stated).
T15 peptide: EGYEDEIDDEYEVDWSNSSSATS
The assay is described as follows: BLI, peptide on sensor.

Assay [15] deals with T16, NRP2a_scan 5 peptide (biotinylated) (human, also: biotin-conjugated, site not given here).
T16 peptide: EDEIDDEYEVDW
The assay is described as follows: BLI, peptide on sensor.

The target in assay [16] is Short NRP2A peptide (biotinylated) (human, biotin-conjugated, site not stated). Put plainly: BLI, peptide on sensor.
The target in assay [17] is T2, Human NRP2a v2 (926aa) in pBiT2.1-C …. Put plainly: NanoBiT complementation of NRP2a v2 and CCR7 truncated after aa331 in Expi293 cells; 100 nM CCL21; normalized to wells without ligand.
Procedure: The vectors were transfected into Expi293 cells using Expifectamine (Fisher Scientific). Approximately 16-20 hours post transfection, cells were washed, plated at 100,000 cells/well in luminometer plates, and then cell permeable luciferase substrate was added and luminescence was monitored on a GloMax96 (Promega). 100 nM ligand was added, and response to ligand was calculated with respect to a control set with no ligand.
The target in assay [18] is T14, mNRP2b peptide (biotinylated). The assay is described as follows: BLI, peptide on sensor, 50 nM antibody.
For assay [19], the target named is T17, mNRP2A peptide (biotinylated) (mouse, biotin-conjugated, site not stated).
T17 construct: also called mouse NRP2 isoform a peptide
The assay is described as follows: BLI, peptide on sensor, 50 nM antibody.

Assay [20] concerns the target T18, Mid-mNRP2A peptide (biotinylated) (mouse, biotin-conjugated, site not stated).
T18 peptide: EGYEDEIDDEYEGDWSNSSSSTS
The assay is described as follows: BLI, peptide on sensor.

Ends that are not written are not given here.

Procedure for NRP2v3: as §1

B1: CCR7, full coding sequence, in pBiT1.1-C with C-terminal split NanoLuc tag, expressed in Expi293F cells (receptor)
chain: QDEVTDDYIGDNTTVDYTLFESLCSKKDVRNFKAWFLPIMYSIICFVGLLGNGLVVLTYIYFKRLKTMTDTYLLNLAVADILFLLTLPFWAYSAAKSWVFGVHFCKLIFAIYKMSFFSGMLLLLCISIDRYVAIVQAVSAHRHRARVLLISKLSCVGIWILATVLSIPELLYSDLQRSSSEQAMRCSLITEHVEAFITIQVAQMVIGFLVPLLAMSFCYLVIIRTLLQARNFERNKAIKVIIAVVVVFIVFQLPYNGVVLAQTVANFNITSSTCELSKQLNIAYDVTYSLACVRCCVNPFLYAFIGVKFRNDLFKLFKDLGCLSQEQLRQWSSCRHIRRSSMSVEAETTTTFSP
notes: cDNA Genscript OHu24012; not shown: vector-encoded spacer and large split NanoLuc fragment (pBiT1.1-C)
As to B1, the binding result in assay [1] and in assay [2] was “binds” throughout.

B2: aNRP2-37v2 (antibody, V domains shown)
VH: DVKLVESGEGLVKPGGSLKLSCAASGFTFSDYALSWVRQTPEKRLEWVAYISSGGDYIYYADTVRGRFTISRDNARNTLYLQMSSLQSEDTAIYYCTRGGQDDYWGQGTTLTVSS
VL: DVVMTQTPLSLPVILGDQASISCRSSQSLVHSNGNTYLQWYLQKPGQSPKLLIYKVSNRFSGVPDRFSGSGSGTDFTLKISRVEAEDLGVYFCSQSTHVPFTFGSGTNLEIK
notes: Mouse monoclonal (captured by anti-murine kappa, detected with anti-mouse IgG)
Turning to B2, the binding result in assay [3] is “no binding (tested: 50 nM)”; in the assay with NRP2v3, “no binding”; in assay [4] it was “binds”; in assay [5] it was “no binding”; in assay [6], “binds”; in [7], “no binding (tested: 50 nM)”. Further, the binding result in assay [8], in assay [9], in assay [10], in [11], in assay [12] and in assay [13] was “no binding (tested: 50 nM)” throughout. Besides, the binding result in assay [14], in assay [15] and in [16] was “no binding (tested: 50 nM)” throughout.

B3: CCR7 truncated after aa331 (without its C-terminal cytoplasmic sequence) in pBiT1.1-C with split NanoLuc tag, expressed in Expi293 cells (receptor)
chain: QDEVTDDYIGDNTTVDYTLFESLCSKKDVRNFKAWFLPIMYSIICFVGLLGNGLVVLTYIYFKRLKTMTDTYLLNLAVADILFLLTLPFWAYSAAKSWVFGVHFCKLIFAIYKMSFFSGMLLLLCISIDRYVAIVQAVSAHRHRARVLLISKLSCVGIWILATVLSIPELLYSDLQRSSSEQAMRCSLITEHVEAFITIQVAQMVIGFLVPLLAMSFCYLVIIRTLLQARNFERNKAIKVIIAVVVVFIVFQLPYNGVVLAQTVANFNITSSTCELSKQLNIAYDVTYSLACVRCCVNPFLYAFIGV
notes: Membrane protein on cells, cytoplasmic tail removed; not shown: vector-encoded spacer and large split NanoLuc fragment (pBiT1.1-C)
B3: the binding result in assay [17] was “binds”.

B4: aNRP2-407v2 (antibody, V domains shown)
VH: EVQLQQSGPELVKPGASVTISCKASGYSFTGYYMHWVKQSHVKSLEWIGRINPYNGATSYSQNFKDKASLTIDKSSSTAYMELHSLTSEDSAVYYCAREETTAPFTYWGQGTLVTVSA
VL: DIVMSQSPSSLAVSVGEKVTMSCKSSQSLLYSSNQKNYLAWYQQKPGQSPKLLIYWASTRESGVPDRFTGSGSGTDFTLTISSVQAEDLAVYFCQHYYSYPPTFGGGTKLEIK
notes: Mouse monoclonal
Regarding B4, the binding result in assay [18] is “binds”; in assay [19], “binds”; with NRP2v3, “binds”; in [4], “binds”; in assay [6], “binds”; in [7] it was “no binding (tested: 50 nM)”. For the same molecule, the binding result in [8], in [9], in assay [10], in assay [11], in [12] and in assay [20] was “no binding (tested: 50 nM)” throughout. Further, the binding result in [14], in [15] and in [16] was “no binding (tested: 50 nM)” throughout.

For the origin of these results see US20240417476A1 (ATYR PHARMA, published 2024).
